The source of these data is patent US20230045262A1 (Hoffmann-La Roche, published 2023).

The target of assay [1] is T1, human CD19 on cells (primary human B cells; WSU-DLCL2) (human, UniProt P15391 20-556).
T1 construct: also called CD19+ human B cells; CD19+ WSU tumor cells
T1 sequence: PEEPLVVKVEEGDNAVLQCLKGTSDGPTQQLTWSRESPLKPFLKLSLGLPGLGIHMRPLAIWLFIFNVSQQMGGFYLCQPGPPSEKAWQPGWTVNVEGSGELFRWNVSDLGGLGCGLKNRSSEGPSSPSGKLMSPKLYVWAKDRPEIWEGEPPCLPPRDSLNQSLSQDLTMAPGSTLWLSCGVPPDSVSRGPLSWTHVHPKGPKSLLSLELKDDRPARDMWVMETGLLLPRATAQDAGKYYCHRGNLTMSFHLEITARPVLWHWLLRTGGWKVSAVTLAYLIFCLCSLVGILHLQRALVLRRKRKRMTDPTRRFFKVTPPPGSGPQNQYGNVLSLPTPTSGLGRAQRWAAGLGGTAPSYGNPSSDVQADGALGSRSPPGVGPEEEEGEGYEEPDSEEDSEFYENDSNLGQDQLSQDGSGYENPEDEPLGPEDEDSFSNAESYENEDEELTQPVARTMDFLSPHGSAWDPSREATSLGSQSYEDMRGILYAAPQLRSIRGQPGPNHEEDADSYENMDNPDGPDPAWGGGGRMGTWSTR
Nature of the assay: flow cytometry on primary human B cells (B cell binding).

Assay [2] deals with T2, human 4-1BB on cells (activated human T cells; HeLa-hu4-1BB-NFκB-luc clone 26; Jurkat-hu4-1BB-NFκB-luc2) (human, UniProt Q07011 24-255). The assay is described as follows: cell-based or functional assay.
The target in assay [3] is T2, human 4-1BB on cells (activated human T …). Nature of the assay: flow cytometry on activated human CD4+ T cells (CD4 binding).
Assay [4] addresses T1, human CD19 on cells (primary human B …). The assay is described as follows: flow cytometry on WSU-DLCL2 cells (WSU binding).
Assay [5] deals with T2, human 4-1BB on cells (activated human T …). The assay is described as follows: flow cytometry on activated human CD8+ T cells (CD8 binding).

B1: 4-1BB (20H4.9)/CD19 (2B11) P329GLALA IgG1 2+1 (hole-VL) (bispecific antibody)
heavy 1: QVQLQQWGAGLLKPSETLSLTCAVYGGSFSGYYWSWIRQSPEKGLEWIGEINHGGYVTYNPSLESRVTISVDTSKNQFSLKLSSVTAADTAVYYCARDYGPGNYDWYFDLWGRGTLVTVSSASTKGPSVFPLAPSSKSTSGGTAALGCLVKDYFPEPVTVSWNSGALTSGVHTFPAVLQSSGLYSLSSVVTVPSSSLGTQTYICNVNHKPSNTKVDKKVEPKSCDKTHTCPPCPAPEAAGGPSVFLFPPKPKDTLMISRTPEVTCVVVDVSHEDPEVKFNWYVDGVEVHNAKTKPREEQYNSTYRVVSVLTVLHQDWLNGKEYKCKVSNKALGAPIEKTISKAKGQPREPQVCTLPPSRDELTKNQVSLSCAVKGFYPSDIAVEWESNGQPENNYKTTPPVLDSDGSFFLVSKLTVDKSRWQQGNVFSCSVMHEALHNHYTQKSLSLSPGGGGGSGGGGSGGGGSGGGGSDIVMTQTPLSLSVTPGQPASISCKSSQSLETSTGTTYLNWYLQKPGQSPQLLIYRVSKRFSGVPDRFSGSGSGTDFTLKISRVEAEDVGVYYCLQLLEDPYTFGQGTKLEIK
heavy 2: not shown
light: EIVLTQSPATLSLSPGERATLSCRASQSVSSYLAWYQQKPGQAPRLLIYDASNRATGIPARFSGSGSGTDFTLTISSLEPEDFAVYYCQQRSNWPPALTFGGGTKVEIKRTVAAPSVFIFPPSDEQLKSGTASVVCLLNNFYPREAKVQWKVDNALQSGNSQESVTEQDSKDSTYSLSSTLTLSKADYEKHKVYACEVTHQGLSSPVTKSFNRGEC
notes: also called 4-1BB(20H4.9)×CD19(2B11) 2+1; 4-1BB×CD19
For B1, the EC50 in assay [1] is 5.01 nM; in assay [3] it was 2.05 nM; in assay [4], 2.26 nM; in assay [5], 0.86 nM. In assay [2], the “EC50 of IFN-γ production by activated human PBMCs (ELISA)” value is 0.1 nM.

B2: 4-1BB (20H4.9)/CD19 (8B8-018) P329GLALA IgG1 2+1 (hole-VL) (bispecific antibody)
heavy 1: QVQLQQWGAGLLKPSETLSLTCAVYGGSFSGYYWSWIRQSPEKGLEWIGEINHGGYVTYNPSLESRVTISVDTSKNQFSLKLSSVTAADTAVYYCARDYGPGNYDWYFDLWGRGTLVTVSSASTKGPSVFPLAPSSKSTSGGTAALGCLVKDYFPEPVTVSWNSGALTSGVHTFPAVLQSSGLYSLSSVVTVPSSSLGTQTYICNVNHKPSNTKVDKKVEPKSCDKTHTCPPCPAPEAAGGPSVFLFPPKPKDTLMISRTPEVTCVVVDVSHEDPEVKFNWYVDGVEVHNAKTKPREEQYNSTYRVVSVLTVLHQDWLNGKEYKCKVSNKALGAPIEKTISKAKGQPREPQVCTLPPSRDELTKNQVSLSCAVKGFYPSDIAVEWESNGQPENNYKTTPPVLDSDGSFFLVSKLTVDKSRWQQGNVFSCSVMHEALHNHYTQKSLSLSPGGGGGSGGGGSGGGGSGGGGSDIVMTQTPLSLSVTPGQPASISCKSSQSLENPNGNTYLNWYLQKPGQSPQLLIYRVSKRFSGVPDRFSGSGSGTDFTLKISRVEAEDVGVYYCLQLTHVPYTFGQGTKLEIK
heavy 2: not shown
light: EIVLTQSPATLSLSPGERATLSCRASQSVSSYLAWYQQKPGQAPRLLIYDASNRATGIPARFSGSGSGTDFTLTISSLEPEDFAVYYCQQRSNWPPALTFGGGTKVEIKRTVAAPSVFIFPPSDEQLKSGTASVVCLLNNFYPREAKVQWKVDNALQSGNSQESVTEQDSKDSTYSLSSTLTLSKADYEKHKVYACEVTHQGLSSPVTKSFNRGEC
notes: also called 4-1BB(20H4.9)×CD19(018); 4-1BB(20H4.9)×CD19(8B8-018) 2+1
Take B2: the EC50 was 5.72 nM in assay [1], 2.63 nM in assay [3], 3.56 nM in assay [4] and 0.55 nM in assay [5]. Besides, in assay [2], the “EC50 of IFN-γ production by activated human PBMCs (ELISA)” value worked out at 0.06 nM.
